Reference: article PMC5159831, “Harnessing the natural inhibitory domain to control TNFα Converting Enzyme (TACE) activity in vivo” (Scientific Reports, 2016)

Legend:
[1] = biological target: recombinant TACE catalytic domain; assay: cell-based or functional assay
[2] = biological target: the molecule itself; assay: SDS-PAGE under non-reducing conditions; purified TPD; 40 kDa band = covalent (disulfide-linked) dimer, 20 kDa band = monomer

Sequence of recombinant TACE catalytic domain (P78536 215-671): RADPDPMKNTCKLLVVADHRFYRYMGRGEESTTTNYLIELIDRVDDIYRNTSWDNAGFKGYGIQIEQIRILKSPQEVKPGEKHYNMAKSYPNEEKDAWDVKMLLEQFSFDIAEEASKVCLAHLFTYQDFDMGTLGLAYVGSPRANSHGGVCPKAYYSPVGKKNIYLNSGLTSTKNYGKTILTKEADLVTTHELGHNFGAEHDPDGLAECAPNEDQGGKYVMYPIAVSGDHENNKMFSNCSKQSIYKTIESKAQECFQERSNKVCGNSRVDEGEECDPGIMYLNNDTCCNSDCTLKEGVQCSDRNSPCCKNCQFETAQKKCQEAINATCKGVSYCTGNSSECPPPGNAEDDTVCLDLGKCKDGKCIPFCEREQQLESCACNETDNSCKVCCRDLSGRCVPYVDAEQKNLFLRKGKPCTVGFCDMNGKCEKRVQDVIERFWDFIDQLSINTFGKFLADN

| IC50 of inhibition of the enzyme's hydrolysis of a fluorogenic peptide (10 nM TACE, Mca-PLAQAV-Dpa-RSSSR 10 μM, 37 °C, 30 min pre-incubation with TPD) [1] | IC50 of inhibition of the enzyme's hydrolysis of a fluorogenic peptide (10 nM TACE, 37 °C) [1] | Binder | stoichiometry N [2] |
| --- | --- | --- | --- |
| 145 nM | – | TACE prodomain (TPD), wild type, Asp23-Arg214 (domain or fragment, human, UniProt P78536 23-214, looked up, prodomain of human ADAM17/TACE, residues Asp23-Arg214; The methods say Asp24-Arg214, but the DNA fits Asp23; The WT runs as a disulfide-linked dimer without reducing agent; also called WT TPD; TPD WT; source: E. coli BL21 (DE3), pET28, soluble fraction, purified (Ni column, HiTrap Q, Superdex 75)) DPGFGPHQRLEKLDSLLSDYDILSLSNIQQHSVRKRDLQTSTHVETLLTFSALKRHFKLYLTSSTERFSQNFKVVVVDGKNESEYTVKWQDFFTGHVVGEPDSRVLAHIRDDDVIIRINTDGAEYNIEPLWRFVNDTKDKRMLVYKSEDIKNVSRLQSPKVCGYLKVDNEELLPKGLVDREPPEELVHRVKR | 2 |
| – | 33 nM | TACE prodomain (TPD) C184A (domain or fragment, human, UniProt P78536 23-214, looked up) DPGFGPHQRLEKLDSLLSDYDILSLSNIQQHSVRKRDLQTSTHVETLLTFSALKRHFKLYLTSSTERFSQNFKVVVVDGKNESEYTVKWQDFFTGHVVGEPDSRVLAHIRDDDVIIRINTDGAEYNIEPLWRFVNDTKDKRMLVYKSEDIKNVSRLQSPKVAGYLKVDNEELLPKGLVDREPPEELVHRVKR | – |
